One protein from publication PMC12811900 (Nature microbiology, 2025) can be followed below.

The series deals with the molecule itself. The series can be described thus: cryo-EM structure.

B1: Sth enolase, untagged, expressed in E. coli (enzyme, Streptococcus thermophilus DGCC7710)
chain: MSIITDVYAREVLDSRGNPTLEVEVYTESGAFGRGMVPSGASTGEHEAVELRDGDKARYGGLGTQKAVDNVNNVIAEHIIGFDVRDQQGIDRAMIALDGTPNKGKLGANAILGVSIAVARAAADYLEVPLYSYLGGFNTKVLPTPMMNIINGGSHSDAPIAFQEFMIVPAGAPTFKEALRWGAEIFHALKKILKERGLETAVGDEGGFAPRFNGTEDGVETIIKAIEAAGYVPGKDVFIGLDCASSEFYDAERKVYDYTKFEGEGAAVRTAAEQIDYLEELVNKYPIITIEDGMDENDWDGWKALTERLGGKVQLVGDDFFVTNTAYLEKGIAEHAANSILIKVNQIGTLTETFDAIEMAKEAGYTAVVSHRSGETEDSTIADIAVATNAGQIKTGSLSRTDRIAKYNQLLRIEDQLGEVAEYRGLKSFYNLKK
Take B1: the stoichiometry N (as a rule, the number of molecules, sites or subunits per partner or assembly) was determined as 8.
